The results in this text go back to paper PMC8247761, “BZR1 Regulates Brassinosteroid-Mediated Activation of AMT1;2 in Rice”.

Series [1] deals with T1, His:BZR1 (Oryza sativa (rice), UniProt Q7XI96 1-298).
T1 sequence: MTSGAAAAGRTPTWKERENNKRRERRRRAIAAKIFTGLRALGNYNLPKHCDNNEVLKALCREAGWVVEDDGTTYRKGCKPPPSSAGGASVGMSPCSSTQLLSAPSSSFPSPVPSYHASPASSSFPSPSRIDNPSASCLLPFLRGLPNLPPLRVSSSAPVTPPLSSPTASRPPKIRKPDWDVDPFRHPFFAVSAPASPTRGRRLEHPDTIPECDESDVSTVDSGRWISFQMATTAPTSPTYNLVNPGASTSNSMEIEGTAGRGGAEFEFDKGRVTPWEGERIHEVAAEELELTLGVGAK
As to the kind of experiment: EMSA; stronger than probe A; EMSA: 1 ug His:BZR1, 40k cpm 32P-labeled probe; buffer, salt, pH and temperature not given (protocol of Je et al., 2010). Conditions: protein: recombinant; tags: His (pET28a(+)); chain copies: 2; label: 32P; blunt. On the technique in general: A gel shift assay detects complexes by their altered migration in electrophoresis.

For series [2], the target named is T1, His:BZR1. As to the kind of experiment: EMSA; slightly weaker than probe B; EMSA: 1 ug His:BZR1, 40k cpm 32P-labeled probe; buffer, salt, pH and temperature not given (protocol of Je et al., 2010). Conditions: protein: recombinant; tags: His (pET28a(+)); chain copies: 2; label: 32P; blunt.

B1: probe B (BRRE B, AMT1;2 promoter P4) (dsDNA)
DNA 1: TGGTCGCATCGTCGTGCGTGAGCTGCCTATCG
DNA 2: CGATAGGCAGCTCACGCACGACGATGCGACCA
For the molecule B1, the binding result in the series with His:BZR1 [1] is recorded as “binds”.

B2: probe A (BRRE A, AMT1;2 promoter P4) (dsDNA)
DNA 1: GTCTCACCGGGCTGCGTGCGTACGCCGATA
DNA 2: TATCGGCGTACGCACGCAGCCCGGTGAGAC
For the molecule B2, the binding result with His:BZR1 [2] is on record as “binds”.
